From patent US20110311550A1 (Scripps Research, published 2011)

Key:
[1] = target: E1E2 (Env) of HCV isolate H (genotype 1a) on HCVpp (hepatitis C virus, isolate H); assay: cell-based or functional assay
[2] = target: E1E2 (Env) of HCV isolate OH8 (genotype 1b) on HCVpp (hepatitis C virus, isolate OH8); assay: cell-based or functional assay
[3] = target: E1E2 (Env) of HCV isolate UKN1B12.16 (genotype 1b) on HCVpp (hepatitis C virus, isolate UKN1B12.16); assay: cell-based or functional assay
[4] = target: E1E2 (Env) of HCV isolate UKN2A1.2 (genotype 2a) on HCVpp (hepatitis C virus, isolate UKN2A1.2); assay: cell-based or functional assay
[5] = target: E1E2 (Env) of HCV isolate UKN2B1.1 (genotype 2b) on HCVpp (hepatitis C virus, isolate UKN2B1.1); assay: cell-based or functional assay
[6] = target: E1E2 (Env) of HCV isolate UKN4.21.16 (genotype 4) on HCVpp (hepatitis C virus, isolate UKN4.21.16); assay: cell-based or functional assay
[7] = target: E1E2 (Env) of HCV isolate UKN5.15.7 (genotype 5) on HCVpp (hepatitis C virus, isolate UKN5.15.7); assay: cell-based or functional assay
[8] = target: VSV (control pseudotype virus envelope); assay: cell-based or functional assay
[9] = target: E1E2 complex of HCV isolate H77 (genotype 1a), wild type (HCV isolate H77, UniProt P27958 192-383; P27958 384-746); assay: cell-based or functional assay
[10] = target: vaccinia-expressed E1E2 complex, isolate HCV-1 (genotype 1a) (hepatitis C virus, isolate HCV-1, UniProt P26664 192-383; P26664 384-746); assay: competition ELISA on HCV-1 E1E2; competitor m22 (CBH-7)
[11] = target: E1E2 complex (H77) with E2 mutation T621A (HCV genotype 1a, isolate H77, UniProt P27958 192-383; P27958 384-746); assay: ELISA, lectin-captured E1E2 lysate, Ab 1 ug/ml;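 also: E1E2 captured on Galanthus nivalis lectin-coated plates, bound antibody read out via HRP-linked secondary antibody with TMB colorimetric substrate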
[12] = target: E1E2 complex (H77) with E2 mutation G634A (HCV genotype 1a, isolate H77, UniProt P27958 192-383; P27958 384-746); assay: ELISA, lectin-captured E1E2 lysate, Ab 1 ug/ml;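 also: E1E2 captured on Galanthus nivalis lectin-coated plates, bound antibody read out via HRP-linked secondary antibody with TMB colorimetric substrate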
[13] = target: E1E2 complex (H77) with E2 mutation G635A (HCV genotype 1a, isolate H77, UniProt P27958 192-383; P27958 384-746); assay: ELISA, lectin-captured E1E2 lysate, Ab 1 ug/ml;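 also: E1E2 captured on Galanthus nivalis lectin-coated plates, bound antibody read out via HRP-linked secondary antibody with TMB colorimetric substrate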
[14] = target: E1E2 complex (H77) with E2 mutation H638A (HCV genotype 1a, isolate H77, UniProt P27958 192-383; P27958 384-746); assay: ELISA, lectin-captured E1E2 lysate, Ab 1 ug/ml;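 also: E1E2 captured on Galanthus nivalis lectin-coated plates, bound antibody read out via HRP-linked secondary antibody with TMB colorimetric substrate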
[15] = target: E1E2 complex (H77) with E2 mutation R639A (HCV genotype 1a, isolate H77, UniProt P27958 192-383; P27958 384-746); assay: ELISA, lectin-captured E1E2 lysate, Ab 1 ug/ml
[16] = target: E1E2 complex (H77) with E2 mutation A642G (HCV genotype 1a, isolate H77, UniProt P27958 192-383; P27958 384-746); assay: ELISA, lectin-captured E1E2 lysate, Ab 1 ug/ml
[17] = target: E1E2 complex (H77) with E2 mutation T425A (HCV genotype 1a, isolate H77, UniProt P27958 192-383; P27958 384-746); assay: ELISA, lectin-captured E1E2 lysate, Ab 1 ug/ml
[18] = target: E1E2 complex (H77) with E2 mutation L427A (HCV genotype 1a, isolate H77, UniProt P27958 192-383; P27958 384-746); assay: ELISA, lectin-captured E1E2 lysate, Ab 1 ug/ml
[19] = target: E1E2 complex (H77) with E2 mutation G436A (HCV genotype 1a, isolate H77, UniProt P27958 192-383; P27958 384-746); assay: ELISA, lectin-captured E1E2 lysate, Ab 1 ug/ml
[20] = target: E1E2 complex (H77) with E2 mutation A439G (HCV genotype 1a, isolate H77, UniProt P27958 192-383; P27958 384-746); assay: ELISA, lectin-captured E1E2 lysate, Ab 1 ug/ml
[21] = target: E1E2 complex (H77) with E2 mutation L441A (HCV genotype 1a, isolate H77, UniProt P27958 192-383; P27958 384-746); assay: ELISA, lectin-captured E1E2 lysate, Ab 1 ug/ml
[22] = target: E1E2 complex (H77) with E2 mutation F442A (HCV genotype 1a, isolate H77, UniProt P27958 192-383; P27958 384-746); assay: ELISA, lectin-captured E1E2 lysate, Ab 1 ug/ml
[23] = target: E1E2 complex (H77) with E2 mutation Y443A (HCV genotype 1a, isolate H77, UniProt P27958 192-383; P27958 384-746); assay: ELISA, lectin-captured E1E2 lysate, Ab 1 ug/ml
[24] = target: E1E2 complex (H77) with E2 mutation N448A (HCV genotype 1a, isolate H77, UniProt P27958 192-383; P27958 384-746); assay: ELISA, lectin-captured E1E2 lysate, Ab 1 ug/ml
[25] = target: E1E2 complex (H77) with E2 mutation R614A (HCV genotype 1a, isolate H77, UniProt P27958 192-383; P27958 384-746); assay: ELISA, lectin-captured E1E2 lysate, Ab 1 ug/ml

B1: MAb AR3D (antibody, V domains shown)
VH: LEQSGAEVKKPGSSVKVSCKASGDTFRSYVITWARQAPGQGLEWMGAIIPFFGTTNLAQKFQGRVTITADESTKTVYMDLSSLRSDDTAVYYCAKAGDLSVGGVLAGGVPHLRHFDPWGQGTLVTVSS
VL: ELTQSPGTLSLSPGERATLSCRAGQTVASNSLAWYQHKPGQAPRLLIYGASIRASGIPDRFSGSGSGTDFTLTISRLEPEDFAVYYCQQYGLSSTFGQGTRLEIKR
notes: also called IgG1 of Fab L4
Neutralizing activity (IC50) on HCVpp [1]: 1 µg/mL
Neutralizing activity (IC50) on HCVpp [2]: 5 µg/mL
Neutralizing activity (IC50) on HCVpp [3]: 1 µg/mL
Neutralizing activity (IC50) on HCVpp [4]: 25 µg/mL
Neutralizing activity (IC50) on HCVpp [5]: 25 µg/mL
Neutralizing activity (IC50) on HCVpp [6]: 1 µg/mL
Neutralizing activity (IC50) on HCVpp [7]: 10 µg/mL
Neutralizing activity (IC50) on control pseudotype virus [8]: > 50 µg/mL
Neutralizing activity (IC50) on HCVpp [9]: 1 µg/mL
% residual binding [10]: 33%

B2: MAb AR2A (antibody, V domains shown)
VH: LEQSGAEMKKPGASLKVSCKTSGYTFDDYGVTWVRQAPGQGLEWMGWISAYSGNTFYARKFQGRVTMTTDPSTRTAYMELRSLRSDDTAVYFCARDRGLAINGVVFPYFGLDVWGQGTTVTVSS
VL: ELTQSPVSLPVTPGEPASISCRSSQSLLHSNGNHYLDWYLQKPGQSPQLLMYLGSNRASGVPDRFSGSGSGTDFTLKISRVEAEDVGVYYCMQGLQTPWTFGQGTKVEIKR
notes: also called IgG1 of Fab G
Neutralizing activity (IC50) on HCVpp [1]: 5 µg/mL
Neutralizing activity (IC50) on HCVpp [2]: > 50 µg/mL
Neutralizing activity (IC50) on HCVpp [3]: > 50 µg/mL
Neutralizing activity (IC50) on HCVpp [4]: 5 µg/mL
Neutralizing activity (IC50) on HCVpp [5]: 10 µg/mL
Neutralizing activity (IC50) on HCVpp [6]: 1 µg/mL
Neutralizing activity (IC50) on HCVpp [7]: 10 µg/mL
Neutralizing activity (IC50) on control pseudotype virus [8]: > 50 µg/mL
Neutralizing activity (IC50) on HCVpp [9]: 1 µg/mL
% residual binding [10]: 17%

B3: MAb AR1A (antibody, V domains shown)
VH: LEQSGAEVKKPGSSVKVSCRASGSPYSSYTITWVRQAPGQGLEWMGGIILMTGKANYAQKFQGRVTITADRATATAYMEMSSLTSDDTAIYYCARDPYVYAGDDVRSLSRWGQGTPVIVSS
VL: not shown
notes: also called IgG1 of Fab B2
Neutralizing activity (IC50) on HCVpp [2]: > 50 µg/mL
Neutralizing activity (IC50) on HCVpp [3]: > 50 µg/mL
Neutralizing activity (IC50) on HCVpp [4]: > 50 µg/mL
Neutralizing activity (IC50) on HCVpp [5]: > 50 µg/mL
Neutralizing activity (IC50) on HCVpp [6]: > 50 µg/mL
Neutralizing activity (IC50) on HCVpp [7]: > 50 µg/mL
Neutralizing activity (IC50) on control pseudotype virus [8]: > 50 µg/mL
Neutralizing activity (IC50) on HCVpp [9]: > 50 µg/mL
% residual binding [10]: 16%

B4: MAb AR1B (antibody, V domains shown)
VH: LESGGGLVQPGGSLRLSCEASGYYFSSFAMSWVRQTPGKGLEWVSSIAGGTLGRTSYRDSVKGRFTISRDNSKNTVFLHMNNLRPEDTAVYYCAKDPLLFAGGPNWFDHWGQGTLVTVSS
VL: not shown
notes: also called IgG1 of Fab D1
Neutralizing activity (IC50) on HCVpp [2]: > 50 µg/mL
Neutralizing activity (IC50) on HCVpp [3]: > 50 µg/mL
Neutralizing activity (IC50) on HCVpp [4]: > 50 µg/mL
Neutralizing activity (IC50) on HCVpp [5]: > 50 µg/mL
Neutralizing activity (IC50) on HCVpp [6]: > 50 µg/mL
Neutralizing activity (IC50) on HCVpp [7]: > 50 µg/mL
Neutralizing activity (IC50) on control pseudotype virus [8]: > 50 µg/mL
Neutralizing activity (IC50) on HCVpp [9]: > 50 µg/mL
% residual binding [10]: 20%

B5: N4 IgG (antibody, V domains shown)
VH: VQLLEQSGPEVKKPGDSLRISCKMSGDSLVTTWIGWVRQKPGQGLEWMGIINPGDSSTNIYPGDSATRYGPSFQGQVTISIDKSTSTAYLQWNNVKASDTGIYYCARHVPVPISGTFLWREREMHDFGYFDDWGQGTLVIVSS
VL: ELTLTQSPGTLSLSPGERATLSCRASQSVSNNYLAWYQQKPGQAPRLLIYGASSRATGIPDRFSGSGSGTGFTLIISRLEPEDFAVYYCQQYGSSSITFGQGTRLEIKR
notes: also called IgG N4
Binding relative to wt (%) [11]: 34%
Binding relative to wt (%) [12]: 117%
Binding relative to wt (%) [13]: 80%
Binding relative to wt (%) [14]: 12%
Binding relative to wt (%) [15]: 114%
Binding relative to wt (%) [16]: 65%
Binding relative to wt (%) [17]: 100%
Binding relative to wt (%) [18]: 125%
Binding relative to wt (%) [19]: 107%
Binding relative to wt (%) [20]: 12%
Binding relative to wt (%) [21]: 18%
Binding relative to wt (%) [22]: 22%
Binding relative to wt (%) [23]: 5%
Binding relative to wt (%) [24]: 48%
Binding relative to wt (%) [25]: 16%

B6: MAb AR3C (antibody, V domains shown)
VH: LEQSGAEVKKPGSSVKVSCETSGGTLDNYALNWVRQAPGQGLEWIGGVVPLFGTTRNAQKFQGRVTISDDKSTGTGHMELRSLRSEDTAVYYCVRSVTPRYCGGGFCYGEFDYWGQGTLVTVSS
VL: ELTQSPATLSVSPGERATLSCRASQSVSSNLAWYQQKPGQAPRLLIYGASTRATGIPARFSGSGSGTEFTLTVSRLEPEDSAVYFCQQYYRSPLTFGGGTKVEIKR
notes: also called IgG1 of Fab H3
Neutralizing activity (IC50) on HCVpp [1]: 1 µg/mL
Neutralizing activity (IC50) on HCVpp [2]: 5 µg/mL
Neutralizing activity (IC50) on HCVpp [3]: 1 µg/mL
Neutralizing activity (IC50) on HCVpp [4]: 10 µg/mL
Neutralizing activity (IC50) on HCVpp [5]: 10 µg/mL
Neutralizing activity (IC50) on HCVpp [6]: 1 µg/mL
Neutralizing activity (IC50) on HCVpp [7]: 1 µg/mL
Neutralizing activity (IC50) on control pseudotype virus [8]: > 50 µg/mL
Neutralizing activity (IC50) on HCVpp [9]: 1 µg/mL
% residual binding [10]: 39%
